Experiments:
PSMA Fab [1] = molecular target: T1, PSMA Fab (biotinylated (site not stated)); experiment: phage ELISA; biotinylated PSMA Fab on neutravidin plate, clonal phage supernatant, anti-M13 HRP detection;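 further: wells preincubated with PSMA antigen in blocking buffer or with blocking buffer only before clonal phage were added for a short incubation, then bound phage detected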
T1 construct: Biotinylated PSMA Fab captured on neutravidin coated plates in the phage ELISA; also called Anti-PSMA Fab; 006 PSMA Fab

PSMA Fab [2] = molecular target: T1, PSMA Fab; experiment: phage ELISA; biotinylated PSMA Fab on neutravidin plate pre-incubated with PSMA antigen as competitor, anti-M13 HRP detection;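 further: crude clonal phage supernatants tested, compared against control wells pre-incubated with blocking buffer only, without PSMA antigen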
Procedure: (§1) Clonal phage were harvested as crude supernatants and screened via standard ELISAs. […] Prior to the addition of clonal phage. wells were incubated with blocking buffer and PSMA antigen or blocking buffer alone. Without washing or aspirating, clonal phage supernatants were then added to the wells and incubated for a short time. Wells were then washed followed by detection of bound phage using a horse radish conjugated anti-M13 antibody.

Anti-PSMA Fab = molecular target: T2, Anti-PSMA Fab; experiment: phage ELISA; biotinylated PSMA Fab on neutravidin plate, clonal phage supernatant, anti-M13 HRP detection;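 further: wells preincubated with PSMA antigen in blocking buffer or with blocking buffer only before clonal phage were added for a short incubation, then bound phage detected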
T2 construct: In the phage ELISA the PSMA Fab was biotinylated and captured on neutravidin coated plates; also called 006 PSMA Fab
Procedure: as §1

PSMA Fab [3] = molecular target: T3, PSMA Fab; experiment: clonal phage ELISA on captured PSMA Fab, wells pre-incubated with PSMA antigen as competitor
T3 construct: also called Anti-PSMA Fab; 006 PSMA Fab
Procedure: as §1

PSMA Fab [4] = molecular target: T3, PSMA Fab; experiment: clonal phage ELISA on biotinylated PSMA Fab captured on neutravidin plates, anti-M13 HRP detection;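 further: crude clonal phage supernatants tested, before phage were added, wells were pretreated with PSMA antigen in blocking buffer or with blocking buffer only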
Procedure: as §1

PSMA Fab (006 PSMA Fab) [5] = molecular target: T4, PSMA Fab (006 PSMA Fab) (biotinylated (site not stated)); experiment: clonal phage ELISA on plate-captured biotinylated PSMA Fab, blocking buffer alone, anti-M13 HRP detection
T4 construct: also called Anti-PSMA Fab

PSMA Fab (006 PSMA Fab) [6] = molecular target: T4, PSMA Fab (006 PSMA Fab); experiment: clonal phage ELISA on plate-captured biotinylated PSMA Fab pre-incubated with PSMA antigen as competitor, anti-M13 HRP detection
Procedure: as §1

Binder: SDMVCKPPWMCYGF [Phage-3844]
- Phage binding ELISA signal, Anti-PSMA Fab (PSMA Fab [1]): 1.22
- Phage binding ELISA signal, Anti-PSMA Fab in presence of PSMA (PSMA Fab [2]): 0.0897

Binder: QLGACIPWWMCNGF [Phage-3863]
- Phage binding ELISA signal, Anti-PSMA Fab (Anti-PSMA Fab): 1.17

Binder: YDRLCSPPWMCSGF (tested as crude phage supernatant) [Phage-3874]
- phage binding ELISA signal (PSMA Fab [3]): 0.0629
- phage binding ELISA signal (PSMA Fab [4]): 1.15

Binder: SDHLCIPRWMCVGF [Phage-3857]
- Phage binding ELISA signal, Anti-PSMA Fab (Anti-PSMA Fab): 1.18

B1: Phage-3883 (peptide)
peptide: VDYVCRPSWMCSGI
notes: tested as crude phage supernatant; The number 3883 of the label stands in r4366
- phage binding ELISA signal (PSMA Fab [3]): 0.0618
- phage binding ELISA signal (PSMA Fab [4]): 1.12

Binder: PFLACIPQWMCEVV [Phage-3843]
- Phage binding ELISA signal, Anti-PSMA Fab (PSMA Fab [1]): 1.22
- Phage binding ELISA signal, Anti-PSMA Fab in presence of PSMA (PSMA Fab [2]): 0.247

Binder: VPRLCMPPWMCVGF [Phage-3848]
- Phage binding ELISA signal, Anti-PSMA Fab (PSMA Fab [1]): 1.21
- Phage binding ELISA signal, Anti-PSMA Fab in presence of PSMA (PSMA Fab [2]): 0.0968

Binder: LYEMCKPLWMCAGF [Phage-3842]
- Phage binding ELISA signal, Anti-PSMA Fab (PSMA Fab [1]): 1.22
- Phage binding ELISA signal, Anti-PSMA Fab in presence of PSMA (PSMA Fab [2]): 0.0737

Binder: VDRVCIPTWMCEGI [Phage-3834]
- Phage binding ELISA signal, Anti-PSMA Fab (PSMA Fab (006 PSMA Fab) [5]): 1.23
- Phage binding ELISA signal, Anti-PSMA Fab in presence of PSMA (PSMA Fab (006 PSMA Fab) [6]): 0.0575

Binder: EGILCKPSWMCNDF (tested as crude phage supernatant) [Phage-3871]
- phage binding ELISA signal (PSMA Fab [3]): 0.0803
- phage binding ELISA signal (PSMA Fab [4]): 1.15

Binder: VSKMCSPVWMCEGF [Phage-3854]
- Phage binding ELISA signal, Anti-PSMA Fab (PSMA Fab [1]): 1.19
- Phage binding ELISA signal, Anti-PSMA Fab in presence of PSMA (PSMA Fab [2]): 0.0928

Binder: SDYMCRPSWMCEGL [Phage-3838]
- Phage binding ELISA signal, Anti-PSMA Fab (PSMA Fab (006 PSMA Fab) [5]): 1.23
- Phage binding ELISA signal, Anti-PSMA Fab in presence of PSMA (PSMA Fab (006 PSMA Fab) [6]): 0.0632

Binder: SGLSCVPFWMCTGF [Phage-3845]
- Phage binding ELISA signal, Anti-PSMA Fab (PSMA Fab [1]): 1.21
- Phage binding ELISA signal, Anti-PSMA Fab in presence of PSMA (PSMA Fab [2]): 0.0662

Binder: PSQMCVPTWMCVGF [Phage-3862]
- Phage binding ELISA signal, Anti-PSMA Fab (Anti-PSMA Fab): 1.17

Binder: DPVWCIPQWMCEGF [Phage-3837]
- Phage binding ELISA signal, Anti-PSMA Fab (PSMA Fab (006 PSMA Fab) [5]): 1.23
- Phage binding ELISA signal, Anti-PSMA Fab in presence of PSMA (PSMA Fab (006 PSMA Fab) [6]): 0.0652

Binder: EHARCTPAWMCAGF [Phage-3859]
- Phage binding ELISA signal, Anti-PSMA Fab (Anti-PSMA Fab): 1.17

Binder: ESKLCIPDWMCILL (tested as crude phage supernatant) [Phage-3881]
- phage binding ELISA signal (PSMA Fab [3]): 0.0662
- phage binding ELISA signal (PSMA Fab [4]): 1.13

Binder: VLHKCLPTWMCNGF [Phage-3836]
- Phage binding ELISA signal, Anti-PSMA Fab (PSMA Fab (006 PSMA Fab) [5]): 1.23
- Phage binding ELISA signal, Anti-PSMA Fab in presence of PSMA (PSMA Fab (006 PSMA Fab) [6]): 0.0967

Binder: EPKECVPPWMCIGM [Phage-3850]
- Phage binding ELISA signal, Anti-PSMA Fab (PSMA Fab [1]): 1.21
- Phage binding ELISA signal, Anti-PSMA Fab in presence of PSMA (PSMA Fab [2]): 0.079

Binder: WQAWCEPPWMCLGF [Phage-3851]
- Phage binding ELISA signal, Anti-PSMA Fab (PSMA Fab [1]): 1.2
- Phage binding ELISA signal, Anti-PSMA Fab in presence of PSMA (PSMA Fab [2]): 0.0962

Binder: PYTLCRPAWMCQAM [Phage-3868]
- Phage binding ELISA signal, Anti-PSMA Fab (Anti-PSMA Fab): 1.16

Binder: LQQLCVPNWMCVGF (tested as crude phage supernatant) [Phage-3873]
- phage binding ELISA signal (PSMA Fab [3]): 0.0902
- phage binding ELISA signal (PSMA Fab [4]): 1.15

Binder: LSWECVPQWMCTGL [Phage-3867]
- Phage binding ELISA signal, Anti-PSMA Fab (Anti-PSMA Fab): 1.16

Binder: TAPMCNPPWMCYGL (tested as crude phage supernatant) [Phage-3878]
- phage binding ELISA signal (PSMA Fab [3]): 0.0701
- phage binding ELISA signal (PSMA Fab [4]): 1.13

Binder: VQIVCSPTWMCTGF [Phage-3861]
- Phage binding ELISA signal, Anti-PSMA Fab (Anti-PSMA Fab): 1.17

Binder: GSHYCVPQWMCGGF [Phage-3858]
- Phage binding ELISA signal, Anti-PSMA Fab (Anti-PSMA Fab): 1.17

Binder: MDVWCVPQWMCDGF (tested as crude phage supernatant) [Phage-3882]
- phage binding ELISA signal (PSMA Fab [3]): 0.0645
- phage binding ELISA signal (PSMA Fab [4]): 1.12

Binder: EDALCVPQWMCSGF (tested as crude phage supernatant) [Phage-3877]
- phage binding ELISA signal (PSMA Fab [3]): 0.0648
- phage binding ELISA signal (PSMA Fab [4]): 1.14

Binder: GQGSCVPMWMCEGF [Phage-3866]
- Phage binding ELISA signal, Anti-PSMA Fab (Anti-PSMA Fab): 1.16

Binder: NYVKCRPAWMCDGF [Phage-3855]
- Phage binding ELISA signal, Anti-PSMA Fab (PSMA Fab [1]): 1.18
- Phage binding ELISA signal, Anti-PSMA Fab in presence of PSMA (PSMA Fab [2]): 0.0759

Binder: PYSICKPDWMCTGL [Phage-3840]
- Phage binding ELISA signal, Anti-PSMA Fab (PSMA Fab (006 PSMA Fab) [5]): 1.22
- Phage binding ELISA signal, Anti-PSMA Fab in presence of PSMA (PSMA Fab (006 PSMA Fab) [6]): 0.0653

Binder: WDIRCSPEWMCIGL [Phage-3849]
- Phage binding ELISA signal, Anti-PSMA Fab (PSMA Fab [1]): 1.21
- Phage binding ELISA signal, Anti-PSMA Fab in presence of PSMA (PSMA Fab [2]): 0.0603

Binder: NAGYCVPTWMCDGF [Phage-3864]
- Phage binding ELISA signal, Anti-PSMA Fab (Anti-PSMA Fab): 1.17

Binder: VVHLCTPNWMCNGF [Phage-3853]
- Phage binding ELISA signal, Anti-PSMA Fab (PSMA Fab [1]): 1.19
- Phage binding ELISA signal, Anti-PSMA Fab in presence of PSMA (PSMA Fab [2]): 0.0576

Binder: DQRMCEPSWMCLGL [Phage-3852]
- Phage binding ELISA signal, Anti-PSMA Fab (PSMA Fab [1]): 1.19
- Phage binding ELISA signal, Anti-PSMA Fab in presence of PSMA (PSMA Fab [2]): 0.0704

Binder: PQIKCIPAWMCDGF (tested as crude phage supernatant) [Phage-3875]
- phage binding ELISA signal (PSMA Fab [3]): 0.0851
- phage binding ELISA signal (PSMA Fab [4]): 1.14

Binder: MGVECKPLWMCTGL [Phage-3865]
- Phage binding ELISA signal, Anti-PSMA Fab (Anti-PSMA Fab): 1.16

Binder: SNVMCRPSWMCAGF (tested as crude phage supernatant) [Phage-3876]
- phage binding ELISA signal (PSMA Fab [3]): 0.132
- phage binding ELISA signal (PSMA Fab [4]): 1.14

Binder: VTPACMPRWMCEGF (tested as crude phage supernatant) [Phage-3879]
- phage binding ELISA signal (PSMA Fab [3]): 0.0611
- phage binding ELISA signal (PSMA Fab [4]): 1.13

Binder: SEMRCSPPWMCYGF [Phage-3841]
- Phage binding ELISA signal, Anti-PSMA Fab (PSMA Fab (006 PSMA Fab) [5]): 1.22
- Phage binding ELISA signal, Anti-PSMA Fab in presence of PSMA (PSMA Fab (006 PSMA Fab) [6]): 0.0822

Binder: YNQLCIPNWMCTGF [Phage-3846]
- Phage binding ELISA signal, Anti-PSMA Fab (PSMA Fab [1]): 1.21
- Phage binding ELISA signal, Anti-PSMA Fab in presence of PSMA (PSMA Fab [2]): 0.0729

Binder: IEKQCVPQWMCDGF (tested as crude phage supernatant) [Phage-3880]
- phage binding ELISA signal (PSMA Fab [3]): 0.0745
- phage binding ELISA signal (PSMA Fab [4]): 1.13

Binder: VGIRCEPAWMCEGF [Phage-3833]
- Phage binding ELISA signal, Anti-PSMA Fab (PSMA Fab (006 PSMA Fab) [5]): 1.24
- Phage binding ELISA signal, Anti-PSMA Fab in presence of PSMA (PSMA Fab (006 PSMA Fab) [6]): 0.0645

Binder: FWQRCVPTWMCEGF [Phage-3835]
- Phage binding ELISA signal, Anti-PSMA Fab (PSMA Fab (006 PSMA Fab) [5]): 1.23
- Phage binding ELISA signal, Anti-PSMA Fab in presence of PSMA (PSMA Fab (006 PSMA Fab) [6]): 0.148

Binder: YELACVPRWMCYGL [Phage-3856]
- Phage binding ELISA signal, Anti-PSMA Fab (Anti-PSMA Fab): 1.18

Binder: IESICRPAWMCERL [Phage-3860]
- Phage binding ELISA signal, Anti-PSMA Fab (Anti-PSMA Fab): 1.17

Binder: STMLCSPSWMCFGF (tested as crude phage supernatant) [Phage-3872]
- phage binding ELISA signal (PSMA Fab [3]): 0.073
- phage binding ELISA signal (PSMA Fab [4]): 1.15

Binder: LEIFCVPMWMCEGL [Phage-3869]
- Phage binding ELISA signal, Anti-PSMA Fab (Anti-PSMA Fab): 1.16

Binder: AVIMCEPSWMCEGF (tested as crude phage supernatant) [Phage-3870]
- phage binding ELISA signal (PSMA Fab [3]): 0.102
- phage binding ELISA signal (PSMA Fab [4]): 1.16

Binder: ELRLCVPHWMCDGF [Phage-3847]
- Phage binding ELISA signal, Anti-PSMA Fab (PSMA Fab [1]): 1.21
- Phage binding ELISA signal, Anti-PSMA Fab in presence of PSMA (PSMA Fab [2]): 0.0777

Binder: NYNACVPIWMCEGF [Phage-3839]
- Phage binding ELISA signal, Anti-PSMA Fab (PSMA Fab (006 PSMA Fab) [5]): 1.22
- Phage binding ELISA signal, Anti-PSMA Fab in presence of PSMA (PSMA Fab (006 PSMA Fab) [6]): 0.104

Reference: patent US20260242478A1 (published 2026)
